Measurements: the RNAGym collection of RNA variant scans (doi:10.7554/elife.80360)

B1: Hammerhead Ribozyme (parent)
chain: ACCGGAUGUGCUUUCCGGUCUGAUGAGUCCGUGAGGACGAAACAG

Variants of: B1
Assay: self-cleavage, relative activity (ratio to wild type); higher = more cleavage; co-transcriptional

Row | Variant | self-cleavage
1 | G31A | 1.03
2 | G31U | 0.966
3 | G31C C43G | 0.34
4 | G31C C43A | 0.392
5 | G31C C43U | 0.436
6 | C30A A37U | 0.42
7 | C30A A37G | 0.586
8 | C30A A37C | 0.428
9 | C30U G45C | 1.05
10 | C30U G45A | 0.606
11 | C30U G45U | 0.981
12 | C29U G33U | 0.92
13 | C29U G33C | 1.09
14 | C29U G33A | 0.959
15 | U32A G45C | 0.593
16 | U32A G45U | 0.707
17 | U32A G45A | 0.852
18 | C30A A40U | 0.347
19 | C30A A40G | 0.414
20 | C30A A40C | 0.466
21 | U32A A42U | 0.373
22 | U32A A42G | 0.238
23 | U32A A42C | 0.315
24 | U32A G33U | 0.859

Row | Variant | self-cleavage
25 | U32A G33C | 0.846
26 | U32A G33A | 0.961
27 | C30U U32G | 1.17
28 | C30U U32C | 1.05
29 | C30U U32A | 0.892
30 | C30U A41C | 0.374
31 | C30U A41U | 0.419
32 | C30U A41G | 0.35
33 | G31C A34U | 0.68
34 | G31C A34C | 1
35 | G31C A34G | 0.994
36 | C30G G39U | 0.337
37 | C30G G39C | 0.334
38 | C30G G39A | 0.26
39 | G31U A42C | 0.363
40 | G31U A42U | 0.295
41 | G31U A42G | 0.28
42 | C30U G33U | 1.18
43 | C30U G33C | 0.714
44 | C30U G33A | 1.02
45 | C30G A44U | 0.367
46 | C30G A44C | 0.363
47 | C30G A44G | 0.769
48 | G31C G33C | 0.969

Row | Variant | self-cleavage
49 | G31C G33A | 1.08
50 | G31C G33U | 0.879
51 | C30G A34U | 0.888
52 | C30G A34C | 0.802
53 | C30G A34G | 0.409
54 | G31U G36C | 0.568
55 | G31U G36U | 0.466
56 | G31U G36A | 0.482
57 | U32A G35C | 0.796
58 | U32A G35A | 0.75
59 | U32A G35U | 0.985
60 | G31U A41G | 0.364
61 | G31U A41C | 0.388
62 | G31U A41U | 0.324
63 | G31U G45A | 0.95
64 | G31U G45U | 0.933
65 | G31U G45C | 0.819
66 | G31C G45U | 0.757
67 | G31C G45A | 0.438
68 | G31C G45C | 0.515
69 | C30U G39U | 0.365
70 | C30U G39C | 0.319
71 | C30U G39A | 0.278
72 | C30U A42U | 0.328

Row | Variant | self-cleavage
73 | C30U A42C | 0.314
74 | C30U A42G | 0.24
75 | G31A C38G | 0.592
76 | G31A C38A | 0.766
77 | G31A C38U | 0.919
78 | C30A A44G | 0.819
79 | C30A A44U | 0.441
80 | C30A A44C | 0.317
81 | U32A C38U | 0.915
82 | U32A C38G | 0.733
83 | U32A C38A | 0.681
84 | G31A A41U | 0.399
85 | G31A A41G | 0.317
86 | G31A A41C | 0.407
87 | G31C A42C | 0.328
88 | G31C A42G | 0.232
89 | G31C A42U | 0.373
90 | C30U A34C | 1.03
91 | C30U A34G | 0.961
92 | C30U A34U | 0.93
93 | U32A A37G | 1.16
94 | U32A A37U | 0.754
95 | U32A A37C | 0.936
96 | C30G A41U | 0.266

Row | Variant | self-cleavage
97 | C30G A41G | 0.349
98 | C30G A41C | 0.368
99 | G31A A40U | 0.297
100 | G31A A40C | 0.642
101 | G31A A40G | 0.417
102 | G31C A37U | 0.587
103 | G31C A37C | 1.05
104 | G31C A37G | 0.968
105 | U32A G39A | 0.367
106 | U32A G39C | 0.485
107 | U32A G39U | 0.366
108 | C30U A44C | 0.632
109 | C30U A44G | 1.36
110 | C30U A44U | 0.625
111 | G31C A41U | 0.381
112 | G31C A41C | 0.306
113 | G31C A41G | 0.374
114 | G31A G45A | 0.934
115 | G31A G45C | 0.945
116 | G31A G45U | 0.805
117 | G31A G35A | 1.05
118 | G31A G35U | 0.875
119 | G31A G35C | 1.01
120 | C30A G33C | 0.755

Row | Variant | self-cleavage
121 | C30A G33A | 1.21
122 | C30A G33U | 0.995
123 | U32A A34G | 0.818
124 | U32A A34C | 0.796
125 | U32A A34U | 1.04
126 | C30U C38G | 0.598
127 | C30U C38U | 1.1
128 | C30U C38A | 0.695
129 | G31C A44U | 0.655
130 | G31C A44C | 0.441
131 | G31C A44G | 1.53
132 | G31U G33U | 1.23
133 | G31U G33C | 1.08
134 | G31U G33A | 0.708
135 | G31A A44U | 0.861
136 | G31A A44C | 0.685
137 | G31A A44G | 1.51
138 | G31U A34C | 0.84
139 | G31U A34U | 0.844
140 | G31U A34G | 0.938
141 | G31C C38U | 0.94
142 | G31C C38A | 0.62
143 | G31C C38G | 0.488
144 | G31U A37G | 0.899

Row | Variant | self-cleavage
145 | G31U A37C | 1.25
146 | G31U A37U | 0.847
147 | C29U G39A | 0.406
148 | C29U G39C | 0.326
149 | C29U G39U | 0.369
150 | C29U G31A | 0.994
151 | C29U G31U | 0.783
152 | C29U G31C | 0.673
153 | C30A G36U | 0.639
154 | C30A G36A | 0.573
155 | C30A G36C | 0.525
156 | G31U C43G | 0.472
157 | G31U C43A | 0.376
158 | G31U C43U | 0.637
159 | C30U A37U | 0.643
160 | C30U A37G | 1.21
161 | C30U A37C | 1.08
162 | C30A A42C | 0.322
163 | C30A A42U | 0.312
164 | C30A A42G | 0.246
165 | C30U G31C | 1.11
166 | C30U G31A | 1.02
167 | C30U G31U | 1.01
